Data as given in patent US20250129146A1, “COMBINED CANCER THERAPY WITH AN EPITHELIAL CELL ADHESION MOLECULE (EPCAM) INHIBITOR AND A WNT INHIBITOR” (ACADEMIA SINICA, priority 2021, published 2025).
Each block holds one molecule with its values, some of them ahead of it.

Key:
Type in all cases: cell-based, human
active β-Catenin = test: Nuclear translocation of β-Catenin (immunofluorescence staining; cell fractionation with western blot)
Protocol: Cells (1×10^6) were seeded overnight and further allowed to grow in serum free conditions. Then cells were further treated with 20 μg/mL mEpAb2-6 or hEpAb2-6 or MT201 for 6 h or with 400 ng/mL LGK974 (MedChemExpress) for 9 h or combination as indicated. Samples were fractioned into cytosol and nuclear extracts using nuclear/cytosol fractionation kit (Biovision) according to the manufacturer's protocol. The fractions were then subjected to western blot analysis.
(§1) For western blotting, cells were extracted using radioimmunoprecipitation assay (RIPA) buffer [(0.01 M sodium phosphate, pH 7.2), 150 mM NaCl, 2 mM EDTA, 50 mM NaF, 1% Nonidet P-40, 1% sodium deoxycholate, and 0.1% SDS)] containing phosphatase inhibitor (Roche) and protease inhibitor (Roche) cocktail. Equal amounts of protein were separated by SDS-PAGE and then transferred to PVDF membranes. The membranes were blocked with 3% BSA in TBST (Blocking solution) and incubated with necessary primary antibodies in the blocking solution overnight at 4° C. Membranes were then incubated with HRP-conjugated secondary antibodies in the blocking solution for 1 h at room temperature, and protein expression were detected. Antibodies used: anti-α-tubulin (Sigma), anti-EpCAM (abeam), anti-Active β-Catenin (Millipore), anti-total β-Catenin (abeam), anti-Frizzled 6 (CST), anti-Frizzled 7 (Santa Cruz Biotech), anti-LRP5 (abcam), anti-Phospho-LRP5 (abcam), anti-Phospho-LRP6 (CST), anti-LRP6 (CST) and anti-EpEX antibody EpAb3-5 (Produced in house), anti-ADAM17 (abcam), anti-phopho-ADAM17 (abcam), anti-Presenilin2 (abcam), anti-phospho-Presenilin2 (S327) (abcam), anti-phospho-Presenilin2 (S330) (abcam) and anti-Axin2 (CST).
Glass slides were used in 24-well plates and coated with 0.1% gelatin. Further, 3×10^4 cells were seeded in serum free medium overnight. Cells were treated with 20 μg/mL EpAb2-6 for 6 h, or 400 ng/mL LGK974 (MedChemExpress) for 9 h or the combination. Cells were washed using ice-cold PBS and fixed with 4% paraformaldehyde for 15 min at RT and washed with ice-cold PBS. Further, cells were permeabilized using 0.1% triton-X in PBS for 20 min and subsequently washed with PBS. Cells were blocked with 3% BSA in PBS for 1 h at RT. Next, cells were treated with primary antibody anti-Active β-Catenin (Millipore) overnight. Then, cells were washed and treated with secondary antibody in 3% BSA containing PBS along with DAPI for 1 h at RT. Samples were then washed in PBS five times and mounted for microscopy. Nuclear β-Catenin intensities were calculated using IMARIS (Oxford Instruments) software.

TCF = TCF activity (TOP-Flash TCF luciferase reporter)
Protocol: Cells were plated at 5×10^3 cells per well and grown overnight in 12-well plates. Then, cells were transiently transfected with TOP-Flash TCF reporter plasmid (Millipore) using poly-jet transfection reagent (SignaGen). At 48 h post transfection, cells were treated with 20 µg/mL Anti-EpCAM EpAb2-6 (Produced in house) or MT201 (Produced in house) for 6 h or 400 ng/mL LGK974 (MedChemExpress) for 9 h or the combination, as indicated. In addition, cells were treated with EpEX (Produced in house by Expi293 Expression System) or recombinant Wnt3A (R & D systems) or the combination for 8 h. Finally, cells were lysed, and the luciferase assay was performed.
The cells were seeded in 24-well plates (1×10^4 cells/well) and incubated at 37° C. for 24 h. The culture media were refreshed, and the cells were transfected with respective reporter plasmids (TCF reporter or Wnt receptor promoter reporter) by PolyJET (SignaGen). The transfected efficiency was normalized by co-transfected with pRL-TK (20 ng) as an internal control. Additional treatments were conducted as indicated. Firefly luciferase and Renilla luminescence were measured 48 h post-transfection using the Dual-Glo Luciferase Assay System (Promega), according to the manufacturer's recommendations.

[1] = system: HCT116, HT29 and SW620 cells; test: Tumorsphere assay; conditions: for sphere formation capacity: SW620 cells, exogenous Wnt3A, EpEX or combination
Protocol: Cells were seeded in ultra-low adherent 6-well plates (5×10^4 cells per well) or 24-well plates (1×10^3 cells per well) and maintained in DMEM/F-12 supplemented with B27. Further, cells were treated with 20 μg/mL mEpAb2-6, hEpAb2-6 or MT201 (Produced in house), or 400 ng/mL LGK974 (MedChemExpress) or the combination, by direct addition to the culture medium. The entire culture medium, including the treatment component, was changed in every other day. Cells were cultured for 10 days, and on 10th day, spheres were counted and photographed under the microscope.

HT29 and SW620 cells = test: Colony formation assay; conditions: for colony formation capacity: SW620 cells, exogenous Wnt3A, EpEX or combination
Protocol: Cells were seeded in 12-well plate (5×10^3 cells per well) and treated with 20 µg/mL mEpAb2-6, hEpAb2-6 or MT201 (Produced in house) or 400 ng/mL LGK974 (MedChemExpress) or combination as indicated in which case the elements were directly added to the culture medium. The medium along with the treatment component were changed in every alternating day and the cells were allowed to grow for 10 days. On the tenth day, cells were washed and fixed with 4% paraformaldehyde and further stained with 1% crystal violet for 30 min. Colonies were washed 3 times with PBS, and images were taken. Furthermore, to measure colony density, the wells were incubated with 0.5% SDS shaking for 2 h at RT. The supernatants were collected, and the absorbance of the solution was taken at 570 nm using a microplate reader.

LRP5/6 = test: Phosphorylation of LRP5/6 (western blot)
Protocol: as §1

[2] = system: Wnt receptors (FZD6/7, LRP5/6); test: Wnt receptor protein and mRNA expression (western blot, qPCR); conditions: HCT116 cells
Protocol: as §1
(§2) Total RNA was extracted using TRI reagent and 5 μg of the total RNA was further reverse-transcribed using oligo (dT) primer with reverse transcriptase. Quantitative real time RT-PCR (qPCR) was performed on cDNA using the Light Cycler 480 SYBR Green-I Master kit and the LightCycler480 System. The gene expression levels of each sample were normalized to the expression levels of glyceraldehyde 3-phosphate dehydrogenase (GAPDH) or β-actin.

Oct4, Sox2 and c-Myc = test: Stemness (pluripotency) factor expression (western blot, qPCR); conditions: HT29 cells
Protocol: as §1, §2

[3] = wild-type HCT116 cells, EpEX, recombinant Wnt3A or both
[4] = wild-type SW620 and HCT116 cells, EpEX, recombinant Wnt3A or the combination for 8 h
[5] = HCT116 cells, exogenous EpEX, Wnt3A or combination
[6] = EpEX, Wnt3A or combination, protein and mRNA level
[7] = EpCAM-knockout cells, exogenous EpEX, LGK974 or both

TCF activity (TCF; HT29 cells, 20 µg/mL antibody for 6 h): did not show any significant effects
Molecule: MT201: adecatumumab, a human anti-EpCAM antibody that was subjected to clinical trials [reference compound]
nuclear translocation of β-Catenin (active β-Catenin; HT29 cells, 20 μg/mL hEpAb2-6 or MT201 for 6 h): did not show any significant effects | ability to inhibit sphere formation ([1]; comparison of EpAb2-6 with MT201, 20 μg/mL): shows no activity | ability to inhibit colony formation (HT29 and SW620 cells; comparison of EpAb2-6 with MT201, 20 g/mL): shows no activity

TCF activity (TCF; [4]): could increase
B1: Wnt3A: recombinant Wnt3A (R & D systems) (protein, UniProt P56704 19-352, looked up)
Protein Wnt-3a: SYPIWWSLAVGPQYSSLGSQPILCASIPGLVPKQLRFCRNYVEIMPSVAEGIKIGIQECQHQFRGRRWNCTTVHDSLAIFGPVLDKATRESAFVHAIASAGVAFAVTRSCAEGTAAICGCSSRHQGSPGKGWKWGGCSEDIEFGGMVSREFADARENRPDARSAMNRHNNEAGRQAIASHMHLKCKCHGLSGSCEVKTCWWSQPDFRAIGDFLKDKYDSASEMVVEKHRESRGWVETLRPRYTYFKVPTERDLVYYEASPNFCEPNPETGSFGTRDRTCNVSSHGIDGCDLLCCGRGHNARAERRREKCRCVFHWCCYVSCQECTRVYDVHTCK
nuclear translocation of β-Catenin (active β-Catenin; [3]): could increase | sphere formation capacity [1]: enhanced | colony formation capacity (HT29 and SW620 cells): enhanced | LRP5/6 phosphorylation (LRP5/6; [5]): increased LRP5/6 phosphorylation | expression of Wnt receptors [2, 6]: upregulated expressions of Wnt receptors | expression of pluripotency factors (Oct4, Sox2 and c-Myc; EpEX, Wnt3A or combination): induced expressions of pluripotency factors

TCF activity (TCF; EpEX-treated EpCAM-knockdown and knockout HCT116 cells): significantly rescued the phenomenon | TCF activity (TCF; [4]): could increase
B2: EpEX: extracellular domain of EpCAM, produced in house by Expi293 Expression System (protein)
chain: QEECVCENYKLAVNCFVNNNRQCQCTSVGAQNTVICSKLAAKCLVMKAEMNGSKLGRRAKPEGALQNNDGLYDPDCDESGLFKAKQCNGTSMCWCVNTAGVRRTDKDTEITCSERVRTYWIIIELKHKAREKPYDSKSLRTALQKEITTRYQLDPKFITSILYENNVITIDLVQNSSQKTQNDVDIADVAYYFEKDVKGESLFHSKKMDLTVNGEQLDLDPGQTLIYYVDEKAPEFSMQGLKAGVIAVIVVVVIAVVAGIVVLVISRKKRMAKYEKAEIKEMGEMHRELNA
nuclear accumulation of β-Catenin (active β-Catenin; shEpCAM or KO-EpCAM HCT116 cells treated with exogenous EpEX): significant increase in nuclear accumulation of β-Catenin | nuclear translocation of β-Catenin (active β-Catenin; [3]): could increase | tumorsphere formation [1, 7]: reverted to wild-type levels | sphere formation capacity [1]: enhanced | colony formation (HT29 and SW620 cells; [7]): reverted to wild-type levels | colony formation capacity (HT29 and SW620 cells): enhanced | LRP5/6 phosphorylation (LRP5/6; [5]): increased LRP5/6 phosphorylation | expression of Wnt receptors [2, 6]: upregulated expressions of Wnt receptors | expression of pluripotency factors (Oct4, Sox2 and c-Myc; EpEX, Wnt3A or combination): induced expressions of pluripotency factors

B3: EpAb2-6: anti-EpCAM (EpEX) neutralizing monoclonal antibody produced in mice by hybridoma; VH SEQ ID NO: 15, VL SEQ ID NO: 16 (antibody, V domains shown)
VH: VKLQESGPELKKPGETVKISCKASGYTFTDYSMHWVKQAPGKGLKWMGWINTETGEPTYADDFKGRFAFSLETSASTAYLQINNLKNEDTATYFCARTAVYWGQGTTVTVSS
VL: DIQMTQSPSSLSASLGERVSLTCRASQEISVSLSWLQQEPDGTIKRLIYATSTLDSGVPKRFSGSRSGSDYSLTISSLESEDFVDYYCLQYASYPWTFGGGTKLEIK
nuclear β-Catenin (active β-Catenin; wild-type HCT116 cells, 20 μg/mL EpAb2-6 for 6 h, 400 ng/mL LGK974 for 9 h or combination): significantly decreased nuclear β-Catenin signal | tumorsphere formation ([1]; HCT116 and HT29 cells, 20 μg/mL EpAb2-6, 400 ng/mL LGK974 or combination, 10 days): decreased | cancer stemness properties ([1]; summary statement, CRC cells, tumorsphere and colony formation): partially attenuate cancer sternness properties | colony formation (HT29 and SW620 cells; HT29 cells, 20 µg/mL EpAb2-6, 400 ng/mL LGK974 or combination, 10 days): decreased | LRP5/6 phosphorylation (LRP5/6; SW620 cells, LGK974, EpAb2-6 or combined treatment): could decrease LRP5/6 phosphorylation | expression of Wnt receptors ([2]; EpAb2-6, LGK974 or combination): partially decrease | expression of pluripotency factors (Oct4, Sox2 and c-Myc; LGK974, EpAb2-6 or combined treatment): decreased pluripotency factor expressions
